B1: ELAQMGPEGMGLEDPNGS peptide (peptide)
chain: ELAQMGPEGMGLEDPNGS
modifications: preformed fibrils
B2: ELAQMPYYYWKDPNGS peptide (peptide)
chain: ELAQMPYYYWKDPNGS
modifications: preformed fibrils
B3: EQALMPWIWYWKDPNGS peptide (peptide)
chain: EQALMPWIWYWKDPNGS
modifications: preformed fibrils
B4: PYYYWKDPNGS peptide (peptide)
chain: PYYYWKDPNGS
modifications: preformed fibrils
B5: PYYYWKELAQM peptide (peptide)
chain: PYYYWKELAQM
modifications: preformed fibrils

Molecular target: alpha-synuclein (Homo sapiens, UniProt P37840)
Assay: SPR

Binder	Kd [µM]
B1	194
B2	133
B3	28.4
B4	39.2
B5	55.2

From PMC11591946 (2024)
